Tested on: Bacillus subtilis
Assay: cleaved RNA product abundance (RNA/gDNA barcode ratio) relative to median wild-type variant (ratio to wild type); higher = more accumulation of the downstream cleavage product
Settings: cleavage site: cggR-gapA (positions -7 to +36 mutated)
Method in brief: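 Reporter mRNAs based on truncated aprE or tetM carried barcoded, mutagenized RNase Y cleavage-site windows built from oligos with a 9% error rate and were integrated into the B. subtilis chromosome. Cultures grew in LB at 37°C from OD600 0.0003 to 0.3. Cleaved RNA was gel-selected, reverse transcribed and barcode-sequenced together with genomic DNA barcodes, and UMIs were collapsed. Cleaved product abundance is the per-construct ratio of RNA to gDNA barcodes, scaled to the median of constructs carrying the unmutated site.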

[1] = experiment (reporter, strain, medium): exp 4a: truncated aprE reporter, strain BJT201 with 2% xylose (RNase J1 expressed)
[2] = experiment (reporter, strain, medium): exp 2b: truncated aprE reporter, strain BJT200
[3] = experiment (reporter, strain, medium): exp 6: tetM reporter, strain 168

Sequence | cleaved RNA product abundance [1] | cleaved RNA product abundance [2] | cleaved RNA product abundance [3]
ACAGACGAAGGAGCCGCAAAGAAGTTATTAAGGGATTGATAATCCCTCAATATAAATATCTCTCACTTATTTAAA | 0.889 |  | 
ACAGACGAAGGAGCCGCAAAGAAGTTATTAAGGGATTTATAATCCCTCAATATAAATATCTCTCACTTATTTAAA | 0.931 |  | 
ACAGACGAAGGAGCCGCAAAGAAGTTATTAAGGGCAGAATAATCCCTCAATATAAATATCTCTCACTTATTTAAA |  | 0.174 | 
ACAGACGAAGGAGCCGCAAAGAAGTTATTAAGGGCTAAATAATCCCTCAATATAAATATCTCTCACTTATTTAAA | 0.368 | 0.389 | 
ACAGACGAAGGAGCCGCAAAGAAGTTATTAAGGGCTGAAAAATCCCTCAATATAAATATCTCTCACTTATTTAAA |  | 0.212 | 
ACAGACGAAGGAGCCGCAAAGAAGTTATTAAGGGCTGAACAATCCCTCAATATAAATATCTCTCACTTATTTAAA | 0.156 |  | 
ACAGACGAAGGAGCCGCAAAGAAGTTATTAAGGGCTGAATAAACCCTCAATATAAATATCTCTCACTTATTTAAA | 0.47 |  | 
ACAGACGAAGGAGCCGCAAAGAAGTTATTAAGGGCTGAATAACCCCTCAATATAAATATCTCTCACTTATTTAAA | 0.424 |  | 
ACAGACGAAGGAGCCGCAAAGAAGTTATTAAGGGCTGAATAATCCATCAATATAAATATCTCTCACTTATTTAAA | 0.0979 | 0.084 | 
ACAGACGAAGGAGCCGCAAAGAAGTTATTAAGGGCTGAATAATCCCACAATATAAATATCTCTCACTTATTTAAA | 0.0873 |  | 
ACAGACGAAGGAGCCGCAAAGAAGTTATTAAGGGCTGAATAATCCCCCAATATAAATATCTCTCACTTATTTAAA | 0.157 |  | 
ACAGACGAAGGAGCCGCAAAGAAGTTATTAAGGGCTGAATAATCCCTAAATATAAATATCTCTCACTTATTTAAA | 0.537 |  | 
ACAGACGAAGGAGCCGCAAAGAAGTTATTAAGGGCTGAATAATCCCTCAATATAAATAACTCTCACTTATTTAAA | 0.729 |  | 
ACAGACGAAGGAGCCGCAAAGAAGTTATTAAGGGCTGAATAATCCCTCAATATAAATATCTCTCACTTATTTAAA | 0.593 | 0.587 | 0.473
ACAGACGAAGGAGCCGCAAAGAAGTTATTAAGGGCTGAATAATCCCTCAATATACATATCTCTCACTTATTTAAA | 0.433 |  | 
ACAGACGAAGGAGCCGCAAAGAAGTTATTAAGGGCTGAATAATCCCTCTATATAAATATCTCTCACTTATTTAAA | 0.255 |  | 
ACAGACGAAGGAGCCGCAAAGAAGTTATTAAGGGCTGAATAATCCCTTAATATAAATATCTCTCACTTATTTAAA | 0.626 |  | 
ACAGACGAAGGAGCCGCAAAGAAGTTATTAAGGGCTGAATAATTCCTCAATATAAATATCTCTCACTTATTTAAA |  | 0.0668 | 
ACAGACGAAGGAGCCGCAAAGAAGTTATTAAGGGCTGAATATTCCCTCAATATAAATATCTCTCACTTATTTAAA | 0.16 | 0.228 | 
ACAGACGAAGGAGCCGCAAAGAAGTTATTAAGGGCTGTATAATCCCTCAATATAAATATCTCTCACTTATTTAAA | 0.54 |  | 
ACAGACGAAGGAGCCGCAAAGAAGTTATTAAGGGCTTAATAATCCCTCAATATAAATATCTCTCACTTATTTAAA | 0.481 |  | 
ACAGACGAAGGAGCCGCAAAGAAGTTATTAAGGGGATGAATAATCCCTCAATATAAATATCTCTCACTTATTTAA | 0.237 |  | 
ACAGACGAAGGAGCCGCAAAGAAGTTATTAAGGGGTAAATAATCCCTCAATATAAATATCTCTCACTTATTTAAA | 0.708 |  | 
ACAGACGAAGGAGCCGCAAAGAAGTTATTAAGGGGTCAATAATCCCTCAATATAAATATCTCTCACTTATTTAAA | 0.611 |  | 
ACAGACGAAGGAGCCGCAAAGAAGTTATTAAGGGGTGAAAAATCCCTCAATATAAATATCTCTCACTTATTTAAA | 0.504 |  | 
ACAGACGAAGGAGCCGCAAAGAAGTTATTAAGGGGTGAATAATCCCTAAATATAAATATCTCTCACTTATTTAAA | 0.554 |  | 
ACAGACGAAGGAGCCGCAAAGAAGTTATTAAGGGGTGAATAATCCCTCAATATAAATACCTCTCACTTATTTAAA | 0.623 |  | 
ACAGACGAAGGAGCCGCAAAGAAGTTATTAAGGGGTGAATAATCCCTCAATATAAATATCTCTCACTTATTTAAA | 0.741 | 0.652 | 0.741

Sequence | cleaved RNA product abundance [1] | cleaved RNA product abundance [2] | cleaved RNA product abundance [3]
ACAGACGAAGGAGCCGCAAAGAAGTTATTAAGGGGTGAATAATCCGTCAATATAAATATCTCTCACTTATTTAAA | 0.0683 | 0.159 | 
ACAGACGAAGGAGCCGCAAAGAAGTTATTAAGGGGTGAATAATCCTTCAATATAAATATCTCTCACTTATTTAAA | 0.266 |  | 
ACAGACGAAGGAGCCGCAAAGAAGTTATTAAGGGGTGAATAATTCCTCAATATAAATATCTCTCACTTATTTAAA | 0.228 |  | 
ACAGACGAAGGAGCCGCAAAGAAGTTATTAAGGGGTGAATACTCCCTCAATATAAATATCTCTCACTTATTTAAA | 0.256 |  | 
ACAGACGAAGGAGCCGCAAAGAAGTTATTAAGGGTAGAATAATCCCTCAATATAAATATCTCTCACTTATTTAAA | 0.293 | 0.172 | 
ACAGACGAAGGAGCCGCAAAGAAGTTATTAAGGGTCGAATAATCCCTCAATATAAATATCTCTCACTTATTTAAA | 0.211 |  | 
ACAGACGAAGGAGCCGCAAAGAAGTTATTAAGGGTTAAATAATCCCTCAATATAAATATCTCTCACTTATTTAAA | 0.753 |  | 
ACAGACGAAGGAGCCGCAAAGAAGTTATTAAGGGTTGAAAAATCCCTCAATATAAATATCTCTCACTTATTTAAA | 0.565 |  | 
ACAGACGAAGGAGCCGCAAAGAAGTTATTAAGGGTTGAACAATCCCTCAATATAAATATCTCTCACTTATTTAAA |  | 0.387 | 
ACAGACGAAGGAGCCGCAAAGAAGTTATTAAGGGTTGAATAAACCCTCAATATAAATATCTCTCACTTATTTAAA | 0.406 | 1.07 | 
ACAGACGAAGGAGCCGCAAAGAAGTTATTAAGGGTTGAATAAGCCCTCAATATAAATATCTCTCACTTATTTAAA | 0.608 |  | 
ACAGACGAAGGAGCCGCAAAGAAGTTATTAAGGGTTGAATAATACCTCAATATAAATATCTCTCACTTATTTAAA | 0.234 | 0.146 | 
ACAGACGAAGGAGCCGCAAAGAAGTTATTAAGGGTTGAATAATCACTCAATATAAATATCTCTCACTTATTTAAA | 0.127 | 0.098 | 
ACAGACGAAGGAGCCGCAAAGAAGTTATTAAGGGTTGAATAATCCATCAATATAAATATCTCTCACTTATTTAAA | 0.205 |  | 
ACAGACGAAGGAGCCGCAAAGAAGTTATTAAGGGTTGAATAATCCCACAATATAAATATCTCTCACTTATTTAAA | 0.0861 |  | 
ACAGACGAAGGAGCCGCAAAGAAGTTATTAAGGGTTGAATAATCCCTCAAAATAAATATCTCTCACTTATTTAAA | 0.222 |  | 
ACAGACGAAGGAGCCGCAAAGAAGTTATTAAGGGTTGAATAATCCCTCAACATAAATATCTCTCACTTATTTAAA | 0.237 |  | 
ACAGACGAAGGAGCCGCAAAGAAGTTATTAAGGGTTGAATAATCCCTCAATATAAATATCTCTCACTTATTTAAA | 0.483 | 0.396 | 0.439
ACAGACGAAGGAGCCGCAAAGAAGTTATTAAGGGTTGAATAATCCCTCAATATAAATATTTCTCACTTATTTAAA | 0.512 |  | 
ACAGACGAAGGAGCCGCAAAGAAGTTATTAAGGGTTGAATAATCCCTCAATATAAATCTCTCTCACTTATTTAAA | 0.173 |  | 
ACAGACGAAGGAGCCGCAAAGAAGTTATTAAGGGTTGAATAATCCCTCAATATAAATTTCTCTCACTTATTTAAA | 0.436 |  | 
ACAGACGAAGGAGCCGCAAAGAAGTTATTAAGGGTTGAATAATCCCTCAATATACATATCTCTCACTTATTTAAA | 0.404 |  | 
ACAGACGAAGGAGCCGCAAAGAAGTTATTAAGGGTTGAATAATCCCTCAATATATATATCTCTCACTTATTTAAA | 0.371 |  | 
ACAGACGAAGGAGCCGCAAAGAAGTTATTAAGGGTTGAATAATCCCTCAATTTAAATATCTCTCACTTATTTAAA | 0.132 |  | 
ACAGACGAAGGAGCCGCAAAGAAGTTATTAAGGGTTGAATAATCCCTCCATATAAATATCTCTCACTTATTTAAA | 0.0987 |  | 
ACAGACGAAGGAGCCGCAAAGAAGTTATTAAGGGTTGAATAATCCCTCTATATAAATATCTCTCACTTATTTAAA | 0.151 | 0.157 | 
ACAGACGAAGGAGCCGCAAAGAAGTTATTAAGGGTTGAATAATCCCTGAATATAAATATCTCTCACTTATTTAAA | 0.299 |  | 

Source: the supplement of paper PMC11780869
